According to US20260150817A1 (LEVERAGEN, published 2026):
Where a chain is given by its changes, count along the chain named. Where two headings read alike, the source gives them in different places.

B1: M2S521_623 Nb-Fc (Fc fusion)
chain: EVQLQQSGPELVKPGASVKISCKASGYTFTDYYMKWEKQSHGKSLEWIGDINPNNGGTRYNQKFRGKATLTVDKSSSTAYMELRSLTSEDSAVYYCARLEDDYYGYAVDYWGQGTSVTVSS
notes: also called LVGN-S521623
B2: M2S521_72 Nb-Fc (Fc fusion)
chain: B1 chain with E37A, D50H, N54V, G57D, R59S, R65K, A79V, D102G, A107T, V108M
notes: also called LVGN-S52172
B3: M2S521_193 Nb-Fc (Fc fusion)
chain: B1 chain with E37V, T58A, R65K, K67R, A97S, D102G
notes: also called LVGN-S521193
B4: MS521_35 Nb-Fc (Fc fusion)
chain: EVQLQQSGPELVKPGASVKISCKASGYTFTDYYMKWVKQRHGQSLEWIGNINPTNGDTNYSQNFKGKATLTVDKSSTTAYMELRSLTSEDSAVYYCARLEDGYYGYAVDYWGQGTSVTVSS
notes: also called LVGN-S52135
B5: M2S521_378 Nb-Fc (Fc fusion)
chain: B1 chain with E37V, N54K, R59N, R65K, G66D, D102G, V108I, G112S
notes: also called LVGN-S521378
B6: M320_5 Nb-Fc (Fc fusion)
chain: EVQLQQSGPELVKPGASVKMSCKASGYTFTDYYIKWEKQSHGKSLEWIGDINPKNGETFYNQQFKGKATLTVDKSSSTAYMQLNSLTSEDSAVYYCARKEYGDYGYAVDYWGQGTSVTVSS
notes: also called LVGN-S3205
B7: M2S320_377 Nb-Fc (Fc fusion)
chain: B6 chain with I34V, E37K, K54N, E57D, Q63K, G66D, D103N, Y104F
notes: also called LVGN-S320377
B8: M2S320_75 Nb-Fc (Fc fusion)
chain: B6 chain with I34M, E37L, S40N, K54N, E57D, Q63K, K74T, V108T
notes: also called LVGN-S32075

Assays:
[1] = biological target: T1, Spike protein of the COVID-19 Spike-ACE2 Binding Assay Kit (Raybiotech) (SARS-CoV-2, UniProt P0DTC2 319-541)
[2] = biological target: T1, Spike protein of the COVID-19 …; remark: listed apart in the source

| Binder | IC50 [1] [nM] | IC50 [2] [nM] |
| --- | --- | --- |
| B1 | 0.13 |  |
| B2 | 0.041 |  |
| B3 | 0.16 |  |
| B4 | 0.49 | 0.489 |
| B5 | 2.2 |  |
| B6 | 0.4 | 0.397 |
| B7 | 1.6 |  |
| B8 | 0.12 |  |
